Results from patent publication US9290553B2, “Peptides that modulate complex SASPase-FLG2” (L'OREAL, priority 2010, dated 2016).

What was measured:
SASPase_28 = biological target: T1, SASPase_28 (Homo sapiens, UniProt Q53RT3); assay: SASPase proteolytic activity assay with Dabcyl-QIDRIMEK-Edans substrate; format: biochemical; conditions: for ability to increase the catalytic activity of SASPase: same enzymatic assay, FLG2-Hs replaced with the synthesized peptide
T1 construct: made in house
T1 sequence (Q53RT3 85-343): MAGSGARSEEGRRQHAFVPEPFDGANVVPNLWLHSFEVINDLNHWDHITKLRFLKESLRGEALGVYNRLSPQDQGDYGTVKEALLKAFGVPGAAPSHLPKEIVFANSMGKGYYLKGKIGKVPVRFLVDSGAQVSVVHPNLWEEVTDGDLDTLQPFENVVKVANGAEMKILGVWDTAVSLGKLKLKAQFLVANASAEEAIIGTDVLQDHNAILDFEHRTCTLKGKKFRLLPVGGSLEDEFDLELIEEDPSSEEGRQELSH
Experimental: A recombinant 28 kDa SASPase (SASPase_28) constituted of the amino acids extending from positions 85 to 343 of the sequence represented by the reference Q53RT3 (Uniprot/Swissprot Ref.) was prepared as described by Bernard et al., (J. Invest. Dermatol., 2005, 125: 278-287).
SASPase_28 at 0.025 mg/ml is in the presence of a colorimetric substrate, Dabcyl-QIDRIMEK-Edans, at 0.01 mM (Production Jerini Peptide Ref. D17: JPT Peptide Technologies GmbH) in a PBS buffer.
The hydrolysis of the colorimetric substrate by the activated SASPase results in the separation of the EDANS fluorochrome and of its deactivator (or quencher) Dabcyl, and in an increase in the EDANS fluorescence.
The fluorescent signal is measured at λex 340 nm/λem 490 nm. The fluorescence is read every 10 minutes for 1 h 30 min, at 37° C., with a SPECTRAMAX M5e (Molecular Devices).
The previous enzymatic assay was repeated with FLG2-Hs being replaced with each of the peptides thus prepared.

filaggrin-2 (FLG2) = biological target: T2, filaggrin-2 (FLG2) (Homo sapiens, UniProt Q5D862); assay: double-hybrid interaction of SASPase_28 fragments with filaggrin-2; format: binding; conditions: N-terminal fragment of SASPase_28, amino acids 11-86
T2 construct: expressed in transfected cells; host or cells: double-hybrid system
T2 sequence (Q5D862 2-213): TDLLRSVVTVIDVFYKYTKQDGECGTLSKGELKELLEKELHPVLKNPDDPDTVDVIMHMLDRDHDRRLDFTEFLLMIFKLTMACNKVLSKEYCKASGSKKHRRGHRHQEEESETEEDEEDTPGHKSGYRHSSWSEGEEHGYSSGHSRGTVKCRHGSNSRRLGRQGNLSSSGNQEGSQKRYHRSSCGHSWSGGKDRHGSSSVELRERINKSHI
Experimental: A first study using the “double-hybrid” technique was carried out using the whole 28 kDa SASPase protein in its wild-type form (SASPase_28, GENBANK Ref. gi16553767) and in its form mutated at the catalytic aspartic acid (SASPase_28D128A), and also the 37 kDa SASPase form (SASPase_37), in its whole form (GENBANK Ref. gi189409121), and a fragment corresponding to the N-terminal end of 84 amino acids of the protein relative to the sequence of SASPase_28 ([…]).
The SASPase sequences were fused to a DNA-binding domain, LexA, according to the orientation N-LexA-SASPase-C, so as to keep the C-terminal end of the SASPase free, with the exception of the SASPase_28N84 sequence which is fused to the LexA domain according to the orientation N-SASPase_28N84-LexA-C.
(§1) The prey sequences were fused to the Ga14 transcription-activating domain.
(§2) Supplementary experiments were carried out in order to reduce and identify the size of the sequences responsible for this interaction between SASPase_28 and filaggrin-2.

SASPase = biological target: T3, SASPase (Homo sapiens, UniProt Q53RT3); assay: double-hybrid interaction of filaggrin-2 fragments with SASPase; format: binding; conditions: N-terminal S100 domain of filaggrin-2, amino acids 2-95
T3 construct: expressed in transfected cells; host or cells: double-hybrid system
T3 sequence (Q53RT3 1-259 isoform Q53RT3-2): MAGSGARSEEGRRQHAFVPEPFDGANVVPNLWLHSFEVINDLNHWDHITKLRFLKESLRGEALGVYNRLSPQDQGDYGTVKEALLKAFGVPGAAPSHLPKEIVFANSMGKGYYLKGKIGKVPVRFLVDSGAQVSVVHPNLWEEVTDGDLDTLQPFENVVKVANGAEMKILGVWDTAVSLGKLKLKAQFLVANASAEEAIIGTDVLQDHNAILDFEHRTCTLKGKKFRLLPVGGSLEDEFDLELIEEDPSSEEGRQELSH
Experimental: The interaction with a SASPase was found using, as bait, the filaggrin-2 fragment identified as interacting with the SASPase_28 and SASPase_37 sequences, and corresponding to amino acids 2-213 of the Genbank sequence: gi:62122916.
The sequence was fused to the DNA-binding domain, LexA, according to the orientation N-LexA-FLG22-213-C.
as §1, §2

SEQ ID NO: 10: peptide of 8 to 20 amino acids synthesized from positions 71 to 90 of FLG2, SEQ ID NO: 9 (FTEFLLMIFKLTMACNKVLS; /mol_type=“protein” /organism=“Homo sapiens”; listed as Homo sapiens)
ability to increase the catalytic activity of SASPase (SASPase_28): particularly significant ability to increase

SEQ ID NO: 11: peptide of 8 to 20 amino acids synthesized from positions 71 to 90 of FLG2, SEQ ID NO: 9 (EFLLMIFKLTMACNK; /mol_type=“protein” /organism=“Homo sapiens”; listed as Homo sapiens)
ability to increase the catalytic activity of SASPase (SASPase_28): particularly significant ability to increase

SEQ ID NO: 12: peptide of 8 to 20 amino acids synthesized from positions 71 to 90 of FLG2, SEQ ID NO: 9 (LMIFKLTMACNKVLS; /mol_type=“protein” /organism=“Homo sapiens”; listed as Homo sapiens)
ability to increase the catalytic activity of SASPase (SASPase_28): particularly significant ability to increase

SEQ ID NO: 13: peptide of 8 to 20 amino acids synthesized from positions 71 to 90 of FLG2, SEQ ID NO: 9 (LMIFKLTMACNKV; /mol_type=“protein” /organism=“Homo sapiens”; listed as Homo sapiens)
ability to increase the catalytic activity of SASPase (SASPase_28): particularly significant ability to increase

SEQ ID NO: 14: peptide of 8 to 20 amino acids synthesized from positions 71 to 90 of FLG2, SEQ ID NO: 9 (TEFLLMIFKLTMACNK; /mol_type=“protein” /organism=“Homo sapiens”; listed as Homo sapiens)
ability to increase the catalytic activity of SASPase (SASPase_28): particularly significant ability to increase

SEQ ID NO: 15: peptide of 8 to 20 amino acids synthesized from positions 71 to 90 of FLG2, SEQ ID NO: 9 (TEFLLMIF; /mol_type=“protein” /organism=“Homo sapiens”; listed as Homo sapiens)
ability to increase the catalytic activity of SASPase (SASPase_28): particularly significant ability to increase

B1: FLG2-Hs: recombinant filaggrin-2, positions 2 to 213 of Q5D862, fused to a Thioredoxin-His-S.Tag affinity label (protein)
chain: TDLLRSVVTVIDVFYKYTKQDGECGTLSKGELKELLEKELHPVLKNPDDPDTVDVIMHMLDRDHDRRLDFTEFLLMIFKLTMACNKVLSKEYCKASGSKKHRRGHRHQEEESETEEDEEDTPGHKSGYRHSSWSEGEEHGYSSGHSRGTVKCRHGSNSRRLGRQGNLSSSGNQEGSQKRYHRSSCGHSWSGGKDRHGSSSVELRERINKSHI
modifications: left off: large carriers
enzymatic activity of SASPase (SASPase_28; SASPase_28 0.025 mg/ml, substrate 0.01 mM, PBS, 37° C., FLG2-Hs at 0.01 to 10 times the SASPase concentration): significantly increased

B2: SEQ ID NO: 16: amino acid sequence extending from positions 97 to 173 of the Q53RT3 sequence of SASPase (protein, listed as Homo sapiens)
chain: RQHAFVPEPFDGANVVPNLWLHSFEVINDLNHWDHITKLRFLKESLRGEALGVYNRLSPQDQGDYGTVKEALLKAFG
modifications: /mol_type=“protein” /organism=“Homo sapiens”
interaction with FLG2 (filaggrin-2 (FLG2)): sufficient for the interaction with FLG2

B3: SEQ ID NO: 9: amino acid sequence extending from positions 2 to 95 of filaggrin-2 Q5D862 (N-terminal S100 domain) (protein, listed as Homo sapiens)
chain: TDLLRSVVTVIDVFYKYTKQDGECGTLSKGELKELLEKELHPVLKNPDDPDTVDVIMHMLDRDHDRRLDFTEFLLMIFKLTMACNKVLSKEYCKA
modifications: /mol_type=“protein” /organism=“Homo sapiens”
interaction with SASPase (SASPase): involved in the interaction with SASPase
